Laboratory results taken from the DeepSol protein solubility set.

test: soluble on expression in E. coli; label from the status in PepcDB or PDB records

| Sequence | soluble on expression in E. coli |
| --- | --- |
| MSLKRVLAVQRISRDTEASSALTRQDEALTRAIRQGTYREVGRVVDATVSGAVHLDQRPSLRRWLAEPLVHEWDVLMVTEQDRITRDDMHWWHFVDWTLKNGKDVEVLDDPTFDIQSEDGRMLAGIKAAQAAKYRKAVQAKQLDRTQFFRENRLWNGGVWPFGYRAEVFSHLGERRKRLTVDPCTSRLVREAYDRLVHGEGTVYAVARDWNLRGVPSARDHQRREQNKDLPEQEHRPEKGTRWSVTPLRNILRSPALMGVMMHRSEPVLDAEGQPVVWAEPVLTSEEFAELQEVVLTEQRTAESGPGKRWRTPLLGVVFCMCGRPMYVRHQKNHLADGTTAVLTYYQCRSVSEMNRCEAPSTWRAESLCAVVERDFLDQAGDRTEMKRTYVPGRDHTAAIAELRSALANLTVAIGTATAPAAVAVLTRQMDEHARTITRLEAEPVVHARWKEEPTGAAYREQWRAVKDWESRAALLAKAGVRFFCEGTHKSGSVHMYLPSASQRRVSGVSLSKEAVEVVGIGPLEEEARRYFTDLRRTKGMGPGFWYSREGHHHHHH | not soluble |
| SLIPIFIAKRENGEKIHLLDHHDEELLHHMRKRESFFCIACGKEVLMRLGKQKRWHFAHKKVDSCLAFYEAESTYHMYGKELLYRWFKRQNVHVEIEHYLPEIRQRPDIFIERAGKQIAIEYQCANLSIEQLCKRTYSYWRAGIQVIWIIGGNQLKKHSAYWMKFSSLMAFSLQSYPQPLLIFFCSKQKSFMKCTFITSFSTSVAFSHIIYLPIETTTFEMLFSPVPFQREVLNREWKRRKDYFRQNALPILNYNHKSLLRLLYQCKCNPANFPSEIGVPLPSSFAFQTNSFIWQAFLYMNCIGELAVGDCISLKYVCSYIKKYTKRRMLPYFSQH | not soluble |
| MGSDKIHHHHHHMPDSPTTTSTLDLELLRTFVAVVDQHSFAQAGAHLARTQSSVTQHMQRLEQQTGVSLFQKKGRHKQLTESGRQLLRHARQMLSLNDDALNSLRDSSLSGVLRIGSPHDIADTILPPLLSHIARSAPRLRLEIDVGRSPFLMDDLHRGKVDMVISTREDPTLEGFALRTSPVWWICSAQYIHVPGEPLPLILVDEPSIYRRYALHALEAANIPWRQAYLASNLIGIKAATRAGLGVTPRSMEMLGPDMRVLGESEGLPRLPDVTYHLWIRPNTLNPLARKAYELIRASQSL | not soluble |
| MPAPLWSPSAERIAASRMEAFRRFVNQRHALGLVDYPALHAWSVQRREAFWQAIVDFFEVRFQQPPRAVLEEGAQMPSARWFPGATLNFAEHLLRRRDDAPALIAVSEDGRREVLSHAELARHVAGLQKRLAALGIGPGDRVAALMPNTWQTVVGMLATASLGATWSSCSPDFGTQGVIDRFGQIEPRVLIACAGYRYAGKSLDLTAKLNEVLAGLPGLEQLLVVPYDRPQAQPQDYRCQAQVALWDGFYQAEGEPVFTPVPFEQPLYILYSSGTTGVPKCIVHATGGVLLQHLKEHGLHTDLGDGDRLFYYTTCGWMMWNWLASGLAVGASLVLYDGSPFHPGPERLLDLIDAEDIAVFGASAKYLAALEKAGMRPRHSHRLDSLRTLLSTGSPLAHESFDYVYRELKSDLCLSSISGGTDIVSCFAIGNPVLPVWRGELQCKALGMAVEIWDDDGRRLASGKGELVCTRHFPSIPLGFWNDPDGTRFHDAYFASFPGVWAHGDYAEETVHGGLVIHGRSDAVLNPGGVRIGTAEIYRQVEKVEEVLESIAIGQDWQGDVRVLLFVRLRDGVRLDEPLRERIRQTIRANATPRHVPAKIIQVADIPRTLSGKIVELAVRNVIHGRPVKNTDALANPQALELYRDLAEL | not soluble |
| MGSDKIHHHHHHMDTAGMISAVQEILANRSLDGWEITAASSHILSIEVKEQKVDTFKCSAPLGVSVRVLKNGGMGFSFSTSMAPEDLARMVDNALVGAESQTPDADHGFPDPPAVYPDVPGLFDDGLAAVAEEAKIAVALDLERLTLAADPRVRKVRKATYGDSMVETMVVNSRGVSCRYRGTSVSASVTAVAEENGQSQMGWDFDFSSRFDGISVERIVAGAVAKATGLLGAATVPTMRCPAVLDTYVATEILEVLAPAFLAESVQKGKSLLAGKRGEMIVAPLLTIRDDGTLPGGMGTAPFDAEGVPKRNTVLVQNGRLDSYLYDTLRARKEGVAPTGNAIRSGIKSPPHMGVSNLFIENGTEAPEALLAGITRGVLLTEVMGMHTANTISGDFSVGAAGFLVEDGRVTRPVKGIAIAGNILELFRGVEAVGNDLRFYGTVGSPSLRIAALDVSGE | not soluble |
| MSEVVKKFMYLNRKAPYGTIYAWEALEVVLIGAAFDQDVCVLFLDDGVYQLTRGQDTKGIGMKNFSPTYRTLGDYEVRRIYVDRDSLEARGLTQDDLVEIAFEDMETEEEFDNIVEVIDSARVSELMNESDAVFSF | soluble |
| AHHHHHHGSRPKVGVLLKMKREALEELEKYAEVEVIPYPSEEELKNKIHEFDGIIVSPVTKITKDVLEKAERLKVISCHSAGYDHIDVEEATRKGIYVTKVSGLLSEAVAEFAVGLLINLMRKIHYADKLIRRGEWESHVKIWTGFKGIESLYGKKVGILGMGAIGKAIARRLIPFGVELYYWSRHRKVDVESELHATYMDIDELLEKSDIVILALPLTKDTYHIINEERVKKLEGKYLVNIGRGALVDERAITEAIKQGKLKGYATDVFENEPVREHELFKYEWETVLTPHYAGLAVEAQEDVGFRAVENLISIFRGIVPEDLVNKEVLKIRPIESVKML | not soluble |
| DKREYFVYLPPTYGKGDNHYSVIYMQDGDIVIKILNELMDLIENKSKKDVYDESIIVGVKPIVRNDDYTPWEAEAISKGSSEFGGRGDIYLNFLIKKLKPYIDNKYRTKKEKN | not soluble |
| MGSDKIHHHHHHMIDLKQYEFWFLVGSQYLYGLETLKKVEQQASKIVDSLNDDPIFPSKIVLKPVLKSSSEITEIFEKANADPKCAGVIVWMHTFSPSKMWIRGLSINKKPLLHLHTQYNREIPWDTIDMDYMNLNQSAHGDREHGFIHARMRLPRKVVVGHWEEKEVREKIAKWMRVACAIQDGRMGQIVRFGDNMREVASTEGDKVEAQIKLGWSINTWGVGELAERVKAVPEREVEELLKEYREKYIMPEDEYSLKAIREQAKIEIALREFLKEKNAVGFTTTFEDLHDLPQLPGLAVQRLMEEGYGFGAEGDWKAAGLVRAIKVMGTSLPGGTSFMEDYTYHLTPGNELVLGAHMLEVCPTIAKEKPRIEVHPLSIGGKADPARLVFDGQEGPAVNASIVDMGNRFRLVVNKVLSVPIERKMPKLPTARVLWKPLPDFKRATTAWILAGGSHHTAFSTAIDVEYLIDWAEALEIEYVVIDENLDLEDFKKELRWNELYWGLLKR | not soluble |
| MAHHHHHHMVVPVMNMTREPAVDSPENSRKISLAGYPEVAGLFCVTVFKSTLDLEVRDCCGLLTLDGVGKCVELKKFSISNCGMLTNISDLKDCVNLEMLTLSGCKTLRNLTPLKGHRTLSCITISHCERMMELDLEGATNLMQLNISDCEELKDVHVSRCTRLEVIDIHDCVKLEKLHGLTYLRELKTLILAGNRELSAVEGINELINRVEKLSLKNCEKLEDLKFLDFCNFLKEVVVAGSNVTEEKKQELRGKGVRIVNEVKVADG | not soluble |
| MSRPTIIINDLDAERIDILLEQPAYAGLPIADALNAELDRAQMCSPEEMPHDVVTMNSRVKFRNLSDGEVRVRTLVYPAKMTDSNTQLSVMAPVGAALLGLRVGDSIHWELPGGVATHLEVLELEYQPEAAGDYLL | soluble |
| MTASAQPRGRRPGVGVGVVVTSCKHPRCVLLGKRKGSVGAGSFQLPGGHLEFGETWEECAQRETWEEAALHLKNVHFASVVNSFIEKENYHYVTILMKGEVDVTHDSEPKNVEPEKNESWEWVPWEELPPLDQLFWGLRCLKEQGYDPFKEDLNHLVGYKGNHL | soluble |
| MANQHANHSINDFKQFVKKHPKLIKEVRKEQRSWQDVYENWVLFGESDPIWDPYREPEEASEAVPETPQKNDFVSKMVTAVKKMDVNQMNEQINKMSQSISSLQSLLNTFSGSGQKHSQPGSGQHPFSFRKDLEHHHHHH | soluble |
| MGSDKIHHHHHHMNWDDIKIFLEVARAERLSTAAKRLTMDASTVSRRLHKLEESIATKLFDRTQDGHVLTPDGEMLLTSACKMEQDAQHALSSIHNNNEENCGLVRIGVTEALGNFFVSPNLLTLQQQHPSIDVHLLLFSRYVKISRNEADIAIAVERPKSTSMIVSKLCDYKLQLYVHQDYLDHNLKQYPQGITLDNLAEHKWVTYVDNLIFTDQLSYIKELDRYLSGELKANFSSTSIISQYFAIKSGLGIGILPCFLADQDKSLIKLHSQDITISRSFWLVTHPESKRLSHVNTVWQYLKQLVLEHAELLNPKE | not soluble |
| MPPPTASTPDDSADPGPDFADVPPTDLVKVGFIFRPHGLDGELKIDPSATDDPARFEVLPTVFVGPHPRRVVRHDIASVRYQKTKRGITVILGLDGIVDRDDAEAVAKMDVFATEAALGLEDDELFADDLVGWTVVTEEGAVQGTVADFMEMPAQDLFVVRTPEDTEAMIPAIDDFIIEIDEEAERIVVRPIDGLMDALEHHHHHH | not soluble |
| MERVNGEDIWQDREIRFDVDHKLLRLINGEIQVAKIEHVEDTKGNNGDRGTMRVTNLRLIWHAASMPRINITIGWNAITGVQSKQTTSLVTRNRGISNEAIYVLAKVSATTTKFEFIFTTTNPASHSKLFNTISSISRAYETTKMYRELKMRGVFIREDGTLKILPQETIIEKVNGVWNLSTETGSLGVFVITNIRVVWYAEMNIGYNVSVPYITLYSVRVRESKFGMALVLETTTSSGEYVLGFRVDPAERLQNLLKTVQSLHKAHLLKPIFGVSYVKEIAEKVEPRKDDDEIDIIDNNEDDVEIDDKIRPDAFASYFDGEHTATDEKQLPVLNPELGLAIEPIRNGFTLHDLWNIHVDV | not soluble |
| MAHHHHHHMASVPFTEEDLHELYTWVDEIPISRQKRNIARDFADGCSVAEILKFFFPKLVDLHNYVPAMSHAKKLDNWNTLNAKVLRKLYFEVPPEEVEDIVAAVPGAIERFLRALRVKVAQIKARRDEMLRMGEIQAHVNAHHVDPSPSQPQPREGGHVRDGGASAATAHRGSGRPSSPAAPAGPVASSRGSSSAGPQAPPRQTQPQRQPTPPLVNEAASLTQALREKDYTIQELRETVAILSEKIVKLEELVRVKDEKLNQYRQKVGRVPA | soluble |
| MNQLTSSFIQNLAEDNIYKLPPHSIEAEQSVLGGLMLDNQAWDKVADIIIESDFYRQDHQLIYQHISRLIEQNKPADVITVAESLENAAQLQHAGGLAYIGAIAQNTPSAANIRRYAEIVRERSIMRKL | not soluble |
| MGSDKIHHHHHHMKKVAIVQSNYIPWKGYFDMIAAVDEFILYDDMQYTRRDWRNRNQIKTPQGVQWLTVPVLVKGKYHQKIRETEIDGTDWAAAHWKALVQNYRRSPHFTEIAAWLEPLYLAETFTHISQLNRRFIEAICNYLGIKTVIKNSWDYTLLDGKTERLADLCVQAGGTEYISGPAAKDYVDEQVFKENGIKLTWFDYIGYPEYQQLWGEFTHGVTILDLLLNCGKNAKRYMKYVE | not soluble |
| MGSDKIHHHHHHMIHLSPNDLPVGAPLPWSLLDGDGNLVLGSGNVIPDTRDVALVFRHGELCRLEADSGGDPQDDPLPRGPLGLQVGTLLHVKQPGDNSRAAASRLIGFVEQGLFMTWPQLGGRDLPVQAGDTLLLRGFSGRVIHSFTSTITAVCRSPFRYLVLSAPSQLDQMPVRKAARVPTRMAAYMTQSQESFQEADQDAFSAEMANGAARLVMVSDLSTGGAQIHAAGPAPVIGSRVQLRFRLRTASLDSEIVADAWVRAVTSDTADAEFPSFGISFDVLGEREMTLLQCFIYEQLLTSSGLGVHR | not soluble |
